# According to doi:10.1101/2025.08.03.668247, “The structure of Egalitarian in complex with the K10 mRNA localization signal reveals a modular binding surface required for function”:
# T1: R785A (Drosophila melanogaster, UniProt Q9W1K4 512-819, R785A)
# T1 sequence: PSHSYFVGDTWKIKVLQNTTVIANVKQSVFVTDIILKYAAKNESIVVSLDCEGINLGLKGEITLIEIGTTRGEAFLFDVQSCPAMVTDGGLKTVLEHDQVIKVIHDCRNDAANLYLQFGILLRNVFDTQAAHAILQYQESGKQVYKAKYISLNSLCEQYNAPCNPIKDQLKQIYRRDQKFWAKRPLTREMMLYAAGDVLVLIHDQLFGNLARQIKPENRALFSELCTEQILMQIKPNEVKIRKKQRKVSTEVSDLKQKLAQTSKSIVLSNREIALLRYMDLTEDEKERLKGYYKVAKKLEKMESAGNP
# T2: R788E (Drosophila melanogaster, UniProt Q9W1K4 512-819, R788E)
# T2 sequence: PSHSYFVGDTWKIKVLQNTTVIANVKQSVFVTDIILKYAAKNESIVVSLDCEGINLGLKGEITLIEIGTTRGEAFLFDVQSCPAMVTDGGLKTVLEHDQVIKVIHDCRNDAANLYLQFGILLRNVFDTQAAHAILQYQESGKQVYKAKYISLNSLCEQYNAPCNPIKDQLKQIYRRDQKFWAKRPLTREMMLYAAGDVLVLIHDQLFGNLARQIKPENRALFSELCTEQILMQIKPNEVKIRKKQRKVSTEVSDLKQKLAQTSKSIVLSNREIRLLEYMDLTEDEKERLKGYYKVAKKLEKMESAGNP
# T3: K758E (Drosophila melanogaster, UniProt Q9W1K4 512-819, K758E)
# T3 sequence: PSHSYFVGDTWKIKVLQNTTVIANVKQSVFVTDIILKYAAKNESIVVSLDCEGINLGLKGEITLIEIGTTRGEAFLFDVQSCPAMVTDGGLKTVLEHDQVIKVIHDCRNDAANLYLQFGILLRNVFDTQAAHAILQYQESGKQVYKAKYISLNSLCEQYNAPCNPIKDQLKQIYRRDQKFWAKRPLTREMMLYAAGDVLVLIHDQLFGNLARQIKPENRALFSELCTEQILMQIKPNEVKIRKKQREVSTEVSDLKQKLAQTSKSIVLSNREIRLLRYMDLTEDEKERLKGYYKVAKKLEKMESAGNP
# T4: R753A (Drosophila melanogaster, UniProt Q9W1K4 512-819, R753A)
# T4 sequence: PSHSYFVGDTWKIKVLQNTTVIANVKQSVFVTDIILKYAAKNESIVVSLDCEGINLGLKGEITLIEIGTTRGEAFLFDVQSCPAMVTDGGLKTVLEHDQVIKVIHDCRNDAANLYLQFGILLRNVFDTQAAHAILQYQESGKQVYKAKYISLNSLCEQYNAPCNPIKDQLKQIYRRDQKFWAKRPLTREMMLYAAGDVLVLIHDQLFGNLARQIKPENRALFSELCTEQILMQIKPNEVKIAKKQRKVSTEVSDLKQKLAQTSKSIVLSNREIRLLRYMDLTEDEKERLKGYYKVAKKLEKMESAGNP
# T5: K754E (Drosophila melanogaster, UniProt Q9W1K4 512-819, K754E)
# T5 sequence: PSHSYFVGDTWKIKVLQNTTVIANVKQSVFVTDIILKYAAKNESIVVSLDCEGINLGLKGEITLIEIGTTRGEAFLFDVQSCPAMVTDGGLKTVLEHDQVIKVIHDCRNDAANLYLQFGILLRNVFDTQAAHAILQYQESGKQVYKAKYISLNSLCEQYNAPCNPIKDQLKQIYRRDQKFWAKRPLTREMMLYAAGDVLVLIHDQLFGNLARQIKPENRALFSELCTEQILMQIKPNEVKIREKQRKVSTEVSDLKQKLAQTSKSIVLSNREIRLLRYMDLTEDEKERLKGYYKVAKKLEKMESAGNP
# T6: L-Triple (Drosophila melanogaster, UniProt Q9W1K4 512-819, R753E;K754E;K755E)
# T6 sequence: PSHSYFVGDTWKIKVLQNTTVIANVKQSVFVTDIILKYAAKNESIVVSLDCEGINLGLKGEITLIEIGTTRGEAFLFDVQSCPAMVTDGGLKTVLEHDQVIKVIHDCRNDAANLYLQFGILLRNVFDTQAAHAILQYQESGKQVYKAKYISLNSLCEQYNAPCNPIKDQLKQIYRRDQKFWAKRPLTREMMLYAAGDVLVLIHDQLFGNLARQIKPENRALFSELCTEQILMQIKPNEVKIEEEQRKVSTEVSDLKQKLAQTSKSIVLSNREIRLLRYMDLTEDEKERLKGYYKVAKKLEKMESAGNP
# B1: K10 TLS (FAM) (structured_RNA)
# RNA: CUUGAUUGUAUUUUUAAAUUAAUUCUUAAAAACUACAAAUUAAG
# Legend:
# Test in all cases: fluorescence anisotropy; FA: 20 mM HEPES-NaOH pH 7.5, 100 mM NaCl, 10% glycerol, 20 C, 10 nM FAM-RNA; competition: 150 nM Egl512-819 + 10 nM FAM-K10 TLS, same buffer
# Settings in all cases: protein: recombinant; tags: N-terminal GST; label: 5'-6-FAM; hairpin with two bulges
# R785A = target: T1, R785A
# R788E = target: T2, R788E
# K758E = target: T3, K758E
# R753A = target: T4, R753A
# K754E = target: T5, K754E
# L-Triple = target: T6, L-Triple
binder,measurement,setting,value
B1,Kd,R785A,194 ± 10 nM
same,Kd,R788E,313 ± 23 nM
same,Kd,K758E,380 ± 65 nM
same,Kd,R753A,95 ± 5 nM
same,Kd,K754E,263 ± 16 nM
same,Kd,L-Triple,1460 ± 302 nM
